These results are taken from US20230218721A1 (ZHEJIANG DOER BIOLOGICS, published 2023).

Starred links: 1 amine or outer side, 2 acyl side, 3 side chain; linkers in the order of their positions; H or OH if unused. Groups on a side chain read outwards from the residue. No end group written: not given here. *: point of attachment. C20 diacid = O=C(O)CCCCCCCCCCCCCCCCCCC(=O)*; C18 diacid = O=C(O)CCCCCCCCCCCCCCCCC(=O)*; γGlu = O=C(O)[C@H](CCC(=O)[*:2])N[*:1]; Palmitoyl = CCCCCCCCCCCCCCCC(=O)*; AEEA = NCCOCCOCC(=O)O

The chains are these.
T1: glucose-dependent insulinotropic polypeptide receptor (GIPR) (human (printed as 'Humanized'), UniProt P48546 22-466)
T1 sequence (looked up): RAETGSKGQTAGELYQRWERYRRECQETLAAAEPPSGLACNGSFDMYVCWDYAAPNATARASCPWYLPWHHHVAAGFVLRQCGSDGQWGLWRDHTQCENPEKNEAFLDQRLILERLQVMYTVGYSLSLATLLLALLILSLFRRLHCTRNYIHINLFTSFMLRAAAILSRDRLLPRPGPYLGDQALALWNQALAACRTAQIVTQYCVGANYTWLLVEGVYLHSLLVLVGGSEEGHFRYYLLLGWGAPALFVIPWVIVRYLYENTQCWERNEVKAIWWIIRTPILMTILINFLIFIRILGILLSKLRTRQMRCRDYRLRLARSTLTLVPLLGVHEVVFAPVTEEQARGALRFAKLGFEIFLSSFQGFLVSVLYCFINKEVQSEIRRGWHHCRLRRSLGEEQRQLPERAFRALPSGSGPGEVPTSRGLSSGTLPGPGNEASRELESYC

B1: glucagon derivative P5YELAN (peptide)
peptide: YSEGTFTSDK([AEEA-AEEA-γGlu-C18 diacid])SKYLDSQAAQDFVQWLLAGGPSSGAPPPS-NH2
modifications: N-terminus assumed
SMILES: CC(C)C[C@H](NC(=O)[C@H](CC(C)C)NC(=O)[C@H](Cc1c[nH]c2ccccc12)NC(=O)[C@H](CCC(N)=O)NC(=O)[C@@H](NC(=O)[C@H](Cc1ccccc1)NC(=O)[C@H](CC(=O)O)NC(=O)[C@H](CCC(N)=O)NC(=O)[C@H](C)NC(=O)[C@H](C)NC(=O)[C@H](CCC(N)=O)NC(=O)[C@H](CO)NC(=O)[C@H](CC(=O)O)NC(=O)[C@H](CC(C)C)NC(=O)[C@H](Cc1ccc(O)cc1)NC(=O)[C@H](CCCCN)NC(=O)[C@H](CO)NC(=O)[C@H](CCCCNC(=O)COCCOCCNC(=O)COCCOCCNC(=O)CC[C@H](NC(=O)CCCCCCCCCCCCCCCCC(=O)O)C(=O)O)NC(=O)[C@H](CC(=O)O)NC(=O)[C@H](CO)NC(=O)[C@@H](NC(=O)[C@H](Cc1ccccc1)NC(=O)[C@@H](NC(=O)CNC(=O)[C@H](CCC(=O)O)NC(=O)[C@H](CO)NC(=O)[C@@H](N)Cc1ccc(O)cc1)[C@@H](C)O)[C@@H](C)O)C(C)C)C(=O)N[C@@H](C)C(=O)NCC(=O)NCC(=O)N1CCC[C@H]1C(=O)N[C@@H](CO)C(=O)N[C@@H](CO)C(=O)NCC(=O)N[C@@H](C)C(=O)N1CCC[C@H]1C(=O)N1CCC[C@H]1C(=O)N1CCC[C@H]1C(=O)N[C@@H](CO)C(N)=O
B2: incretin analogue P3YELAN (peptide)
peptide: YSEGTFTSDK([γGlu-Palmitoyl])SKYLDSQAAQDFVQWLLAGGPSSGAPPPS-NH2
modifications: N-terminus assumed
SMILES: CCCCCCCCCCCCCCCC(=O)N[C@@H](CCC(=O)NCCCC[C@H](NC(=O)[C@H](CC(=O)O)NC(=O)[C@H](CO)NC(=O)[C@@H](NC(=O)[C@H](Cc1ccccc1)NC(=O)[C@@H](NC(=O)CNC(=O)[C@H](CCC(=O)O)NC(=O)[C@H](CO)NC(=O)[C@@H](N)Cc1ccc(O)cc1)[C@@H](C)O)[C@@H](C)O)C(=O)N[C@@H](CO)C(=O)N[C@@H](CCCCN)C(=O)N[C@@H](Cc1ccc(O)cc1)C(=O)N[C@@H](CC(C)C)C(=O)N[C@@H](CC(=O)O)C(=O)N[C@@H](CO)C(=O)N[C@@H](CCC(N)=O)C(=O)N[C@@H](C)C(=O)N[C@@H](C)C(=O)N[C@@H](CCC(N)=O)C(=O)N[C@@H](CC(=O)O)C(=O)N[C@@H](Cc1ccccc1)C(=O)N[C@H](C(=O)N[C@@H](CCC(N)=O)C(=O)N[C@@H](Cc1c[nH]c2ccccc12)C(=O)N[C@@H](CC(C)C)C(=O)N[C@@H](CC(C)C)C(=O)N[C@@H](C)C(=O)NCC(=O)NCC(=O)N1CCC[C@H]1C(=O)N[C@@H](CO)C(=O)N[C@@H](CO)C(=O)NCC(=O)N[C@@H](C)C(=O)N1CCC[C@H]1C(=O)N1CCC[C@H]1C(=O)N1CCC[C@H]1C(=O)N[C@@H](CO)C(N)=O)C(C)C)C(=O)O
B3: glucagon derivative P9YELAN (peptide)
peptide: YSEGTFTSDK([AEEA-AEEA-γGlu-C20 diacid])SKYLDSQAAQDFVQWLLAGGPSSGAPPPS-NH2
modifications: N-terminus assumed
SMILES: CC(C)C[C@H](NC(=O)[C@H](CC(C)C)NC(=O)[C@H](Cc1c[nH]c2ccccc12)NC(=O)[C@H](CCC(N)=O)NC(=O)[C@@H](NC(=O)[C@H](Cc1ccccc1)NC(=O)[C@H](CC(=O)O)NC(=O)[C@H](CCC(N)=O)NC(=O)[C@H](C)NC(=O)[C@H](C)NC(=O)[C@H](CCC(N)=O)NC(=O)[C@H](CO)NC(=O)[C@H](CC(=O)O)NC(=O)[C@H](CC(C)C)NC(=O)[C@H](Cc1ccc(O)cc1)NC(=O)[C@H](CCCCN)NC(=O)[C@H](CO)NC(=O)[C@H](CCCCNC(=O)COCCOCCNC(=O)COCCOCCNC(=O)CC[C@H](NC(=O)CCCCCCCCCCCCCCCCCCC(=O)O)C(=O)O)NC(=O)[C@H](CC(=O)O)NC(=O)[C@H](CO)NC(=O)[C@@H](NC(=O)[C@H](Cc1ccccc1)NC(=O)[C@@H](NC(=O)CNC(=O)[C@H](CCC(=O)O)NC(=O)[C@H](CO)NC(=O)[C@@H](N)Cc1ccc(O)cc1)[C@@H](C)O)[C@@H](C)O)C(C)C)C(=O)N[C@@H](C)C(=O)NCC(=O)NCC(=O)N1CCC[C@H]1C(=O)N[C@@H](CO)C(=O)N[C@@H](CO)C(=O)NCC(=O)N[C@@H](C)C(=O)N1CCC[C@H]1C(=O)N1CCC[C@H]1C(=O)N1CCC[C@H]1C(=O)N[C@@H](CO)C(N)=O

Sequence of glucagon receptor (GCGR) (P47871 26-477): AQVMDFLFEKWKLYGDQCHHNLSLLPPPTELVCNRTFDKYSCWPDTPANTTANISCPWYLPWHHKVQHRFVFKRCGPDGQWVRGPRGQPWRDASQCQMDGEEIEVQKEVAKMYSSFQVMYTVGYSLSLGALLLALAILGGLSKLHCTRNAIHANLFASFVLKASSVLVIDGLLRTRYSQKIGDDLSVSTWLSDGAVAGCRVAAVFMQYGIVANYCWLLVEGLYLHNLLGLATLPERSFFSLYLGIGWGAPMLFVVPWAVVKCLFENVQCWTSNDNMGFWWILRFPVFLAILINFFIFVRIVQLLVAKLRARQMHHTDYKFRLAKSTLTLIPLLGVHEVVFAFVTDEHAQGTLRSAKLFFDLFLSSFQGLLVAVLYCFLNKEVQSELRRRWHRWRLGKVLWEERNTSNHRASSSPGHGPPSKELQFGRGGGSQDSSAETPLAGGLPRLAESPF

One assay deals with T1, glucose-dependent insulinotropic …. The assay is described as follows: cell-based or functional assay.
With B1, the “GIPR agonist activity (EC50, nM)” value was determined as 1.56 nM.
Same read-out and setting: in the case of B2 it was 0.004 nM.
Same read-out and setting: in the case of B3 it was 0.19 nM.

Another assay addresses glucagon receptor (GCGR) (human (printed as 'Humanized'), UniProt P47871 26-477). In words: cell-based or functional assay.
On to B1, for which the “GCGR agonist activity (EC50, nM)” value is 5.87 nM.
Same read-out and setting: in the case of B2 it was 4.57 nM; in that of B3, 4.77 nM.

The next assay deals with human glucagon-like peptide-1 receptor (GLP-1R) (human (printed as 'Humanized'), UniProt P43220 24-463). In words: cell-based or functional assay.
Consider B1, for which the “GLP-1R agonist activity (EC50, nM)” value is 0.81 nM.
Same read-out and setting: the result for B2 reads 0.11 nM; that for B3, 4.25 nM.
